Earlier results, collected in paper PMC12206923.

Target: dimeric IL-2 receptor (Homo sapiens) (UniProt P14784)
Chain of UniProt P14784 (P14784 27-240, chain 1 of 2): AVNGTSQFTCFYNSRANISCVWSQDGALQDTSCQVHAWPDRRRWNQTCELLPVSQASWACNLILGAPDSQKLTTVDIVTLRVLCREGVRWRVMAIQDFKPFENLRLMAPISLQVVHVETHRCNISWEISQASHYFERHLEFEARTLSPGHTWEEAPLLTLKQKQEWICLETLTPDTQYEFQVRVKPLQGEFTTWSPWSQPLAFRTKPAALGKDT
Chain of UniProt P14784 (P31785 23-262, chain 2 of 2, further chain): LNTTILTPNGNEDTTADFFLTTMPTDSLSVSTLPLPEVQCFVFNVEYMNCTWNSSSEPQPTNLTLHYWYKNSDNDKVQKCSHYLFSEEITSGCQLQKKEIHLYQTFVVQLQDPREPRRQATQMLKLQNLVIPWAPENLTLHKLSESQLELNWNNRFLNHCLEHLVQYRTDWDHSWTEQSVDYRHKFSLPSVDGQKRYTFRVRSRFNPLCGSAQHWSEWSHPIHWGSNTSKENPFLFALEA

Chain of IL-2 (P60568 21-153): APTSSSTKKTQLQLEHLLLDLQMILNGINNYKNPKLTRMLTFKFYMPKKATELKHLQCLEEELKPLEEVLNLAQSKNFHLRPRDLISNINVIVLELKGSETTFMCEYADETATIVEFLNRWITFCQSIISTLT

Kd: 1 nM
Substance: IL-2 (from UniProt P60568)
